In publication PMC10036535, “A naturally occurring mini-alanyl-tRNA synthetase”:
Numbering of substitutions follows the chain as printed.

Tests used:
[1] = system: TuAlaRS (Tupanvirus (of Acanthamoeba castellanii)); experiment: EMSA; conditions: none (in vitro transcript)
EcAlaRS [2] = molecular target: T1, EcAlaRS (Escherichia coli, UniProt P00957 1-876); experiment: EMSA; 5 mM Mg2+; hardly affected vs WT; EMSA: 20 mM HEPES pH 7.5, 20 mM KCl, 5 mM MgCl2, 2 mM DTT, 0.1 µM RNA, 10 min on ice, protein 0.0625-32 µM; 5% native PAGE, 0.5x TBE, 4 °C; conditions: protein: recombinant; label: 5'-32P; tRNA cloverleaf
T1 sequence: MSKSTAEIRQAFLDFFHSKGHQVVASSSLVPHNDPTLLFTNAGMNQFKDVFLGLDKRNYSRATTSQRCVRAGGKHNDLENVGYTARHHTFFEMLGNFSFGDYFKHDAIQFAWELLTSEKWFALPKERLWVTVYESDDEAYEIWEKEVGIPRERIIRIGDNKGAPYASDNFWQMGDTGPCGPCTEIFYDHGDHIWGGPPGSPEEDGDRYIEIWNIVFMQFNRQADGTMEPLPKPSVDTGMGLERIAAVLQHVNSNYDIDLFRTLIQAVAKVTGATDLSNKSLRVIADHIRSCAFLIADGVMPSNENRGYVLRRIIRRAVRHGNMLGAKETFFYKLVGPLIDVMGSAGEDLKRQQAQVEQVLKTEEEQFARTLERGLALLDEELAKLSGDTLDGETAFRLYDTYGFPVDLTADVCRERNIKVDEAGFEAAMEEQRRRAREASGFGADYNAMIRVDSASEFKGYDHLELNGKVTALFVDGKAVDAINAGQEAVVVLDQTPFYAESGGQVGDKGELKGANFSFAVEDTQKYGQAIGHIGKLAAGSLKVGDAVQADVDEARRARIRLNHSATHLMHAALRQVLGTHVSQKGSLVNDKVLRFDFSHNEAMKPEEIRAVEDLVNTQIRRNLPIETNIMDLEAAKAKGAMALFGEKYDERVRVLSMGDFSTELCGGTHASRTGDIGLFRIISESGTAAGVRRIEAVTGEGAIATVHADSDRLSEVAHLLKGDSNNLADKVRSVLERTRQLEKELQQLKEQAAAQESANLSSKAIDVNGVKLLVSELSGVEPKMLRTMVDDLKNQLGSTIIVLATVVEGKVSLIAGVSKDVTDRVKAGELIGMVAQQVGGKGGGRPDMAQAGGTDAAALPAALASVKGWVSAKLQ

EcAlaRS [3] = molecular target: T1, EcAlaRS; experiment: EMSA; 5 mM Mg2+; EMSA: 20 mM HEPES pH 7.5, 20 mM KCl, 5 mM MgCl2, 2 mM DTT, 0.1 µM RNA, 10 min on ice, protein 0.0625-32 µM; 5% native PAGE, 0.5x TBE, 4 °C; conditions: protein: recombinant; label: 5'-32P; tRNA cloverleaf

Work on “GGAGCUAUAGCUUCUAGCUCCACCA [Ec-microAla A3:U70]” yielded a Kd fold increase vs WT (fold increase in Kd vs WT) [1] of 3.

In the case of GGGAUUUUAGCUUCUAAUUCUACCA [Ce-microAla], the Kd [1] is reported as 400 nM.

“GGGGCUAUAGCUCAGCUGGGAGAGCGCCUGCUUUGCAAGCAGGAGGUCUGCGGUUCGAUCCCGCAUAGCUCCACCA [EctRNAAla]” gave a Kd [1] of 300 nM.

Molecule “GGGGCUAUAGCUUCUAGCCCCACCA [Ec-microAla G3:C70]” has a Kd fold increase vs WT (fold increase in Kd vs WT) [1] of 3.

Molecule GGGGCUAUAGCUUCUAGCUCCACCA [Ec-microAla] has a Kd [1] of 300 nM.

B1: EctRNAAla delCCA (structured_RNA)
RNA: GGGGCUAUAGCUCAGCUGGGAGAGCGCCUGCUUUGCAAGCAGGAGGUCUGCGGUUCGAUCCCGCAUAGCUCCA
modifications: none (in vitro transcript)
B1: binds (EcAlaRS [2]).

B2: EctRNAAla CCA to UUG (structured_RNA)
RNA: GGGGCUAUAGCUCAGCUGGGAGAGCGCCUGCUUUGCAAGCAGGAGGUCUGCGGUUCGAUCCCGCAUAGCUCCAUUG
modifications: none (in vitro transcript)
B2: binds (EcAlaRS [2]).

B3: EctRNAAla (structured_RNA)
RNA: B2 RNA with U74C, U75C, G76A
modifications: none (in vitro transcript)
With B3 the Kd (EcAlaRS [3]) was 1000 nM.
